Laboratory results as given in patent publication CN109666070A (UNIV TSINGHUA, dated 2019).

How the values were obtained:
生物素标记的RBD融合蛋白 [1] = target: T1, 生物素标记的RBD融合蛋白 (MERS-CoV, UniProt K9N5Q8 367-606); experiment: affinity measurement with biotin-labelled RBD fusion protein; method not stated
生物素标记的RBD融合蛋白 [2] = target: T1, 生物素标记的RBD融合蛋白; experiment: as above; remark: listed apart in the source

B1: 单克隆抗体MERS-4 (antibody, V domains shown)
VH: EVQLVESGGGLVQPGRSLRLSCAASGFTFSNYAMYWVRQAPGKGLEWVALISYDISTDYYADSVKGRFTISRDNSKNTIYLQMNNLRTEDTALYYCAGNDYWGQGTLVTVSS
VL: QSVLTQSPSASGTPGQRVTISCSGSSSNIGNNYVYWYQQLPGTAPKLLIYWNDQRPSGVPDRFSGSKSGTSASLAISGLRSEDEADYYCAAWDDSLSGAVFGGGTQLTVLG
In the case of B1, the “fold of Kd against that of MERS-4V2” value (生物素标记的RBD融合蛋白 [1]) is reported as 1.71 fold, the Ka (生物素标记的RBD融合蛋白 [2]) is reported as 8e+08 M⁻¹ and the Kd (生物素标记的RBD融合蛋白 [2]) is reported as 1.25 nM. It also gave a koff (生物素标记的RBD融合蛋白 [2]) of 0.00101 s⁻¹ and a kon (生物素标记的RBD融合蛋白 [2]) of 805000 M⁻¹ s⁻¹.
